Measurements published in PMC5720770.

Target: T1, OxyR (Pseudomonas aeruginosa (PAO1?)) (UniProt Q9HTL4)
T1 sequence: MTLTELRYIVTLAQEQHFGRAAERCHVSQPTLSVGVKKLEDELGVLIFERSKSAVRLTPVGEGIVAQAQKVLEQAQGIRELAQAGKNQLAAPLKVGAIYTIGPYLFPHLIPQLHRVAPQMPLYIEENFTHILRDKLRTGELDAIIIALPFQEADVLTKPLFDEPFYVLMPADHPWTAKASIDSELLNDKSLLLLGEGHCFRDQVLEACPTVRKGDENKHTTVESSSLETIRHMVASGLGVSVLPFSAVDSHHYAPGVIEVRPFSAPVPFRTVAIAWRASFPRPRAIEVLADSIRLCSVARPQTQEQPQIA
Assay: DNase I footprinting
Details: Footprint: 20 mM Tris-HCl pH 7.0, 50 mM KCl, 1 mM EDTA, 5% glycerol, 50 ug/ml BSA, 5 ug/ml calf thymus DNA, 0.5 ug/ml poly(dI-dC), 25 C, 15 min; EMSA: Roche …

CAGGCGCTCGGCGGCGCGGGTGAAACTGCCTTCGCGGGCGACGGCGTCGAAGGCGCGGAGCTGGAAGAGATTCATGGTATCGGCCTGGCTTATGGCTGGCATCGGAACAAACAATTTGAACGATAGTAGCGCGGCGCTCACCTTATGTCTCCAGGCTTCCCTGGAACGCCGGCGCGGAACGACCGCCCGGACCGCGAAG (double strand) [phnW promoter 199-bp fragment (footprint)]
binding: binds
